Test [1] concerns the target GST-CBL47–435 WT (human) (UniProt P22681). As to the kind of experiment: SPR. (In general: Surface plasmon resonance follows binding to a sensor surface in real time, without labels.)
Test [2] addresses GST-CBL47–435 Y368F pY371 (human) (UniProt P22681). The experiment in a line: SPR.
The target in test [3] is GST-CBL47–435 M222E (human) (UniProt P22681). As to the kind of experiment: SPR.
Test [4] addresses GST-CBL47–435 Y371F (human) (UniProt P22681). As to the kind of experiment: SPR.
Test [5] has as its target GST-CBL47–435 Y368F (human) (UniProt P22681). The experiment in a line: SPR.
Test [6] addresses GST-CBL47–435 WT (human) (UniProt P22681). The experiment in a line: SPR. This is another data set of the same source.
The target of a further test is CBL47–435 pY371 (human) (UniProt P22681).
CBL47–435 pY371 (human), sequence (P22681 47-435): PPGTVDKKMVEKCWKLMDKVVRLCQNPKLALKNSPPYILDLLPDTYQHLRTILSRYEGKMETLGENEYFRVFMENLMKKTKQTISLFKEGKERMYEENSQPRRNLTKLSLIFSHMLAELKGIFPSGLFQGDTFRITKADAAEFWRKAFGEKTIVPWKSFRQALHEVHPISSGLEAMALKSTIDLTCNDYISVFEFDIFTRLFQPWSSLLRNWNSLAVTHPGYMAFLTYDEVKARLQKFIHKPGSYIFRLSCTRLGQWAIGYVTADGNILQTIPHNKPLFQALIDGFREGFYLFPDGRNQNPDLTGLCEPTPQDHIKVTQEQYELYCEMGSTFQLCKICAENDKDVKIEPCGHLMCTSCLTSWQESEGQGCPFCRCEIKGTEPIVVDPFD

Where two headings read alike, the source gives them in different places.

UbcH5B (from UniProt P62837 1-147) (enzyme; other documents disagree on this pair), sequence (P62837 whole entry): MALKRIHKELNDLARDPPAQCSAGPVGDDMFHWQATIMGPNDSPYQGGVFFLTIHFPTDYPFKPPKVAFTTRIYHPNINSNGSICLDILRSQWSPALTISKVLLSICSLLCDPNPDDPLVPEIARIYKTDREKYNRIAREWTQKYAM
GST-CBL47–435 WT (human), sequence (P22681 47-435): as the sequence (P22681 47-435) above
GST-CBL47–435 Y368F pY371 (human), sequence (P22681 47-435 Y368F): as the sequence (P22681 47-435) above, with Y322F counted along it
GST-CBL47–435 Y371F (human), sequence (P22681 47-435 Y371F): as the sequence (P22681 47-435) above, with Y325F counted along it
GST-CBL47–435 Y368F (human), sequence (P22681 47-435 Y368F): as the sequence (P22681 47-435) above, with Y322F counted along it
UbcH5B (from UniProt P62837 1-147) (enzyme), sequence (P62837 whole entry): as the sequence (P62837 whole entry) above
GST-CBL47–435 M222E (human), sequence (P22681 47-435 M222E): as the sequence (P22681 47-435) above, with M176E counted along it

As to ZAP-70 peptide, the results for the Kd (with GST-CBL47–435 WT (human) [1]; in test [2]) were 17 µM and 11 µM, respectively.
In the case of “UbcH5B (from UniProt P62837 1-147) (enzyme; other documents disagree on this pair)”, the Kd (in general, a measure of binding affinity in units of concentration) in test [3] is 70 µM; in test [4], 250 µM; in test [5] it was 138 µM; in the test with GST-CBL47–435 WT (human) [1] it was 311 µM; in test [2] it was 28 µM; in the test with GST-CBL47–435 WT (human) [6], 244 µM.
With “UbcH5B (from UniProt P62837 1-147) (enzyme)”, in the test with CBL47–435 pY371 (human), the Km (UbcH5B~Ub) of CBL47–435 pY371 autoubiquitination, Michaelis-Menten, 22°C is 6.5 μM.
